From patent US20220340666A1 (NEW YORK UNIVERSITY, published 2022)

B1: G9.1-8m10 Fab (Fab, V domains shown)
VH: EVQLVESGGGLVQPGGSLRLSCAASGFTVSSSSIHWVRQAPGKGLEWVAYIYPYSGYTSYADSVKGRFTISADTSKNTAYLQMNSLRAEDTAVYYCARYSTYSKWVWGMDYWGQGTLVTVSS
VL: DIQMTQSPSSLSASVGDRVTITCRASQSVSSAVAWYQQKPGKAPKLLIYSASSLYSGVPSRFSGSRSGTDFTLTISSLQPEDFATYYCQQSYYDSNPITFGQGTKVEIKR
notes: Purified Fab; also called G9.1-8mut10
B2: G9.1-8m11 Fab (Fab, V domains shown)
VH: EVQLVESGGGLVQPGGSLRLSCAASGFTVSSSSIHWVRQAPGKGLEWVAYIYPYSGYTSYADSVKGRFTISADTSKNTAYLQMNSLRAEDTAVYYCARYSTYKWVWGMDYWGQGTLVTVSS
VL: DIQMTQSPSSLSASVGDRVTITCRASQSVSSAVAWYQQKPGKAPKLLIYSASSLYSGVPSRFSGSRSGTDFTLTISSLQPEDFATYYCQQSYYDSNPITFGQGTKVEIKR
notes: Purified Fab; also called G9.1-8mut11
B3: G9.1-8m6 Fab (Fab, V domains shown)
VH: EVQLVESGGGLVQPGGSLRLSCAASGFTVSSSSIHWVRQAPGKGLEWVAYIYPYSGYTSYADSVKGRFTISADTSKNTAYLQMNSLRAEDTAVYYCARYSTYSSSSSKWVWGMDYWGQGTLVTVSS
VL: DIQMTQSPSSLSASVGDRVTITCRASQSVSSAVAWYQQKPGKAPKLLIYSASSLYSGVPSRFSGSRSGTDFTLTISSLQPEDFATYYCQQSYYDSNPITFGQGTKVEIKR
notes: Purified Fab; also called G9.1-8mut6
B4: G9.1-8m8 mIgG2a (antibody, V domains shown)
VH: EVQLVESGGGLVQPGGSLRLSCAASGFTVSSSSIHWVRQAPGKGLEWVAYIYPYSGYTSYADSVKGRFTISADTSKNTAYLQMNSLRAEDTAVYYCARYSTYSSSKWVWGMDYWGQGTLVTVSS
VL: DIQMTQSPSSLSASVGDRVTITCRASQSVSSAVAWYQQKPGKAPKLLIYSASSLYSGVPSRFSGSRSGTDFTLTISSLQPEDFATYYCQQSYYDSNPITFGQGTKVEIKR
notes: also called G9.1-8mut8
B5: G9.1-8m9 mIgG2a (antibody, V domains shown)
VH: EVQLVESGGGLVQPGGSLRLSCAASGFTVSSSSIHWVRQAPGKGLEWVAYIYPYSGYTSYADSVKGRFTISADTSKNTAYLQMNSLRAEDTAVYYCARYSTYSSKWVWGMDYWGQGTLVTVSS
VL: DIQMTQSPSSLSASVGDRVTITCRASQSVSSAVAWYQQKPGKAPKLLIYSASSLYSGVPSRFSGSRSGTDFTLTISSLQPEDFATYYCQQSYYDSNPITFGQGTKVEIKR
notes: also called G9.1-8mut9
B6: G9.1-8m7 Fab (Fab, V domains shown)
VH: EVQLVESGGGLVQPGGSLRLSCAASGFTVSSSSIHWVRQAPGKGLEWVAYIYPYSGYTSYADSVKGRFTISADTSKNTAYLQMNSLRAEDTAVYYCARYSTYSSSSKWVWGMDYWGQGTLVTVSS
VL: DIQMTQSPSSLSASVGDRVTITCRASQSVSSAVAWYQQKPGKAPKLLIYSASSLYSGVPSRFSGSRSGTDFTLTISSLQPEDFATYYCQQSYYDSNPITFGQGTKVEIKR
notes: Purified Fab; also called G9.1-8mut7
B7: G9.1-8m8 Fab (Fab, V domains shown)
VH: EVQLVESGGGLVQPGGSLRLSCAASGFTVSSSSIHWVRQAPGKGLEWVAYIYPYSGYTSYADSVKGRFTISADTSKNTAYLQMNSLRAEDTAVYYCARYSTYSSSKWVWGMDYWGQGTLVTVSS
VL: DIQMTQSPSSLSASVGDRVTITCRASQSVSSAVAWYQQKPGKAPKLLIYSASSLYSGVPSRFSGSRSGTDFTLTISSLQPEDFATYYCQQSYYDSNPITFGQGTKVEIKR
notes: Purified Fab; also called G9.1-8mut8
B8: G9.1-8m9 Fab (Fab, V domains shown)
VH: EVQLVESGGGLVQPGGSLRLSCAASGFTVSSSSIHWVRQAPGKGLEWVAYIYPYSGYTSYADSVKGRFTISADTSKNTAYLQMNSLRAEDTAVYYCARYSTYSSKWVWGMDYWGQGTLVTVSS
VL: DIQMTQSPSSLSASVGDRVTITCRASQSVSSAVAWYQQKPGKAPKLLIYSASSLYSGVPSRFSGSRSGTDFTLTISSLQPEDFATYYCQQSYYDSNPITFGQGTKVEIKR
notes: Purified Fab; also called G9.1-8mut9
B9: G9.1-8m11 mIgG2a (antibody, V domains shown)
VH: EVQLVESGGGLVQPGGSLRLSCAASGFTVSSSSIHWVRQAPGKGLEWVAYIYPYSGYTSYADSVKGRFTISADTSKNTAYLQMNSLRAEDTAVYYCARYSTYKWVWGMDYWGQGTLVTVSS
VL: DIQMTQSPSSLSASVGDRVTITCRASQSVSSAVAWYQQKPGKAPKLLIYSASSLYSGVPSRFSGSRSGTDFTLTISSLQPEDFATYYCQQSYYDSNPITFGQGTKVEIKR
notes: also called G9.1-8mut11
B10: G9.1-8m5 mIgG1 (antibody, V domains shown)
VH: EVQLVESGGGLVQPGGSLRLSCAASGFTVSSSSIHWVRQAPGKGLEWVAYIYPYSGYTSYADSVKGRFTISADTSKNTAYLQMNSLRAEDTAVYYCARYSTYSWGGIGSSSSSMDYWGQGTLVTVSS
VL: DIQMTQSPSSLSASVGDRVTITCRASQSVSSAVAWYQQKPGKAPKLLIYSASSLYSGVPSRFSGSRSGTDFTLTISSLQPEDFATYYCQQSYYDSNPITFGQGTKVEIKR
notes: Human/mouse hybrid IgG: CH1 and CL human, Fc mouse IgG1; also called G9.1-8mut5
B11: G9.1-8m2 mIgG1 (antibody, V domains shown)
VH: EVQLVESGGGLVQPGGSLRLSCAASGFTVSSSSIHWVRQAPGKGLEWVAYIYPYSSSSSYADSVKGRFTISADTSKNTAYLQMNSLRAEDTAVYYCARYSTYSWGGIGKWVWGMDYWGQGTLVTVSS
VL: DIQMTQSPSSLSASVGDRVTITCRASQSVSSAVAWYQQKPGKAPKLLIYSASSLYSGVPSRFSGSRSGTDFTLTISSLQPEDFATYYCQQSYYDSNPITFGQGTKVEIKR
notes: Human/mouse hybrid IgG: CH1 and CL human, Fc mouse IgG1; also called G9.1-8mut2
B12: G9.1-8m1 mIgG1 (antibody, V domains shown)
VH: EVQLVESGGGLVQPGGSLRLSCAASGFTVSSSSIHWVRQAPGKGLEWVASSSSSSGYTSYADSVKGRFTISADTSKNTAYLQMNSLRAEDTAVYYCARYSTYSWGGIGKWVWGMDYWGQGTLVTVSS
VL: DIQMTQSPSSLSASVGDRVTITCRASQSVSSAVAWYQQKPGKAPKLLIYSASSLYSGVPSRFSGSRSGTDFTLTISSLQPEDFATYYCQQSYYDSNPITFGQGTKVEIKR
notes: Human/mouse hybrid IgG: CH1 and CL human, Fc mouse IgG1; also called G9.1-8mut1
B13: G9.1-8m3 mIgG1 (antibody, V domains shown)
VH: EVQLVESGGGLVQPGGSLRLSCAASGFTVSSSSIHWVRQAPGKGLEWVAYIYPYSGYTSYADSVKGRFTISADTSKNTAYLQMNSLRAEDTAVYYCARSSSSSWGGIGKWVWGMDYWGQGTLVTVSS
VL: DIQMTQSPSSLSASVGDRVTITCRASQSVSSAVAWYQQKPGKAPKLLIYSASSLYSGVPSRFSGSRSGTDFTLTISSLQPEDFATYYCQQSYYDSNPITFGQGTKVEIKR
notes: Human/mouse hybrid IgG: CH1 and CL human, Fc mouse IgG1; also called G9.1-8mut3
B14: G9.1-8m4 mIgG1 (antibody, V domains shown)
VH: EVQLVESGGGLVQPGGSLRLSCAASGFTVSSSSIHWVRQAPGKGLEWVAYIYPYSGYTSYADSVKGRFTISADTSKNTAYLQMNSLRAEDTAVYYCARYSTYSSSSSSKWVWGMDYWGQGTLVTVSS
VL: DIQMTQSPSSLSASVGDRVTITCRASQSVSSAVAWYQQKPGKAPKLLIYSASSLYSGVPSRFSGSRSGTDFTLTISSLQPEDFATYYCQQSYYDSNPITFGQGTKVEIKR
notes: Human/mouse hybrid IgG: CH1 and CL human, Fc mouse IgG1; also called G9.1-8mut4
B15: G9.1-2 Fab (Fab, V domains shown)
VH: EVQLVESGGGLVQPGGSLRLSCAASGFTISSSSIHWVRQAPGKGLEWVASISSYYGSTYYADSVKGRFTISADTSKNTAYLQMNSLRAEDTAVYYCARSWSSSFWYNWALDYWGQGTLVTVSS
VL: DIQMTQSPSSLSASVGDRVTITCRASQSVSSAVAWYQQKPGKAPKLLIYSASSLYSGVPSRFSGSRSGTDFTLTISSLQPEDFATYYCQQWQWGYSLVTFGQGTKVEIKR
B16: G9.1-3 Fab (Fab, V domains shown)
VH: EVQLVESGGGLVQPGGSLRLSCAASGFTIYSSSIHWVRQAPGKGLEWVAYIYSSSGYTSYADSVKGRFTISADTSKNTAYLQMNSLRAEDTAVYYCARYSHSSLYYSWIWALDYWGQGTLVTVSS
VL: DIQMTQSPSSLSASVGDRVTITCRASQSVSSAVAWYQQKPGKAPKLLIYSASSLYSGVPSRFSGSRSGTDFTLTISSLQPEDFATYYCQQSWYSNKPITFGQGTKVEIKR
B17: G9.1-1 Fab (Fab, V domains shown)
VH: EVQLVESGGGLVQPGGSLRLSCAASGFTFSSSSIHWVRQAPGKGLEWVASIYSSYGYTYYADSVKGRFTISADTSKNTAYLQMNSLRAEDTAVYYCARYYWGWSQNQGFWWYGLDYWGQGTLVTVSS
VL: DIQMTQSPSSLSASVGDRVTITCRASQSVSSAVAWYQQKPGKAPKLLIYSASSLYSGVPSRFSGSRSGTDFTLTISSLQPEDFATYYCQQSWVGSLITFGQGTKVEIKR
B18: G9.1-10 Fab (Fab, V domains shown)
VH: EVQLVESGGGLVQPGGSLRLSCAASGFTVSYSSIHWVRQAPGKGLEWVASIYSYYGSTYYADSVKGRFTISADTSKNTAYLQMNSLRAEDTAVYYCARGHYQEGRKSGFSYWSPALDYWGQGTLVTVSS
VL: DIQMTQSPSSLSASVGDRVTITCRASQSVSSAVAWYQQKPGKAPKLLIYSASSLYSGVPSRFSGSRSGTDFTLTISSLQPEDFATYYCQQWYWYYPVTFGQGTKVEIKR
B19: G9.1-11 Fab (Fab, V domains shown)
VH: EVQLVESGGGLVQPGGSLRLSCAASGFTVYSSSIHWVRQAPGKGLEWVASIYSYYGYTSYADSVKGRFTISADTSKNTAYLQMNSLRAEDTAVYYCARSTEGYDRWGYYSSYWSSGLDYWGQGTLVTVSS
VL: DIQMTQSPSSLSASVGDRVTITCRASQSVSSAVAWYQQKPGKAPKLLIYSASSLYSGVPSRFSGSRSGTDFTLTISSLQPEDFATYYCQQTYWGLITFGQGTKVEIKR
notes: Avitag at the C-terminus of the heavy chain, biotinylated when required
B20: G9.1-4 Fab (Fab, V domains shown)
VH: EVQLVESGGGLVQPGGSLRLSCAASGFTIYYSSIHWVRQAPGKGLEWVASISSSSGSTSYADSVKGRFTISADTSKNTAYLQMNSLRAEDTAVYYCARSYRPYSSYYWGMDYWGQGTLVTVSS
VL: DIQMTQSPSSLSASVGDRVTITCRASQSVSSAVAWYQQKPGKAPKLLIYSASSLYSGVPSRFSGSRSGTDFTLTISSLQPEDFATYYCQQSSSSLITFGQGTKVEIKR

What follows are binders tested against T1, human Galectin-9 CRD1 (residues 1-148), biotinylated (human, UniProt O00182 1-148, biotinylated in vitro with BirA (Avitag)) (assay: bead-based binding assay, flow cytometry).
T1 construct: Made as GST fusion, GST cleaved off with thrombin, gel filtered, biotinylated; not shown: Avitag upstream of the cloned gene (pGEX vector), left after thrombin cleavage from GST
T1 sequence (O00182 1-148): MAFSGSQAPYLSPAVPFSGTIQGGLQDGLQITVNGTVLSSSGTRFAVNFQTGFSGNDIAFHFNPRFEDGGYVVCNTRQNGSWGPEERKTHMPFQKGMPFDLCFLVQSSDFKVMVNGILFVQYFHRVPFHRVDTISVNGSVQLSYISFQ
Experimental: The affinities of the antibodies were assessed using a bead-based assay as previously described (Nishikori et al., J Mol Biol, 2012, 424, 391-399) and surface plasmon resonance (SPR). In the bead-based assay, a biotinylated protein (either a Galectin-9 sample or a Fab sample) was immobilized on streptavidin-coated Dynabeads M280 via the biotin-streptavidin interaction. After blocking the excess biotin-binding sites on the beads using unconjugated biotin, binding titration was performed by incubating the second component (i.e., Fab for immobilized Galectin-9 or vice versa), followed by quantification using a dye-labeled neutravidin (ThermoFisher) and flow cytometry analysis. In experiments where the second component is an IgG, a dye-labeled anti-human IgG or anti-mouse IgG antibody was used for detection.

**Q.** How did the Kd turn out when B1 was run?
**A.** 58.4 nM

**Q.** How did the Kd turn out when B2 was run?
**A.** 52.7 nM

**Q.** How did the Kd turn out when B3 was run?
**A.** 0.52 nM

**Q.** Which Kd does the source give for B4 here?
**A.** 0.51 nM

**Q.** How did the Kd turn out when B5 was run?
**A.** 0.71 nM

**Q.** How did the Kd turn out when B6 was run?
**A.** 0.93 nM

**Q.** Which Kd does the source give for B7 here?
**A.** 0.56 nM

**Q.** With B8 as the binder, how does the Kd read?
**A.** 1.57 nM

**Q.** How did the Kd turn out when B9 was run?
**A.** 1.46 nM

**Q.** Does B10 bind?
**A.** no binding

**Q.** Which Kd does the source give for B11 here?
**A.** 6.51 nM

**Q.** Does B12 bind?
**A.** no binding

**Q.** Does B13 bind?
**A.** no binding

**Q.** How did the Kd turn out when B14 was run?
**A.** 12 nM

The binders below were run against T1, human Galectin-9 CRD1 (residues 1-148), … (assay: phage ELISA, phage-displayed Fab on biotinylated CRD).

**Q.** Does B15 bind?
**A.** binds

**Q.** Does B16 bind?
**A.** binds

**Q.** Does B17 bind?
**A.** binds

**Q.** Does B18 bind?
**A.** binds

**Q.** Does B19 bind?
**A.** binds

**Q.** Does B20 bind?
**A.** binds
